Experimental data: the supplement of paper PMC10567573

B1: PLAGL1 (parent)
chain: DPNKMAFGCEECGKKYNTMLGYKR
B2: ZNF207 (parent)
chain: FPSAGQAQAAVQGPVGTDFKPLNS

Variants of: B1
Experiment: protein stability index of a GFP-peptide fusion (GPS, HEK-293T) (PSI 1-6); higher = more stable
Conditions: c terminus: a fixed tail appended
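Also: lentivirally expressed fusions sorted by FACS into six bins by GFP to DsRed ratio, PSI derived from sequencing read proportions per bin multiplied by bin number.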

Protein stability index: each site, then its substitutions
G21: T 2.08 | C 3.09 | E 3.33 | V 1.81 | Q 2.48 | I 2.26 | F 1.85 | Y 2.06 | K 3.15 | W 1.95 | A 3.01 | S 2.87 | D 3.13 | R 2.94 | P 2.64 | H 2.56 | M 2.06 | N 2.55
Y16: L 3.25 | G 2.17 | V 2.73 | S 2.62 | P 3.07 | K 3.16 | N 3.04 | C 2.58 | A 2.82 | W 2.72 | I 2.13 | D 2.88 | Q 2.44 | E 3.2 | H 2.73 | R 3.4 | M 2.71 | T 3.51 | F 2.68
L20: V 2.7 | N 2.26 | K 3.26 | Q 2.33 | W 2.73 | C 2.59 | P 3.11 | G 2.46 | E 3.51 | Y 2.1 | D 2.82 | A 2.23 | R 3.46 | S 2.59 | I 2.54 | M 2.72 | H 3.08 | F 2.18
T18: P 2.78 | F 2.15 | S 2.39 | R 2.6 | I 2.63 | A 3.2 | D 2.42 | L 1.85 | C 2.35 | E 2.77 | Q 3.04 | H 2.81 | Y 1.87 | M 2.18 | G 3.07 | K 3.01 | N 2.3 | V 1.42
M19: G 2.64 | R 2.99 | S 2.83 | E 2.32 | F 1.9 | K 3.55 | P 2.27 | N 2.37 | Y 2.49 | V 2.14 | Q 2.94 | A 3.16 | L 2.82 | I 2.25 | T 2.74 | H 1.32 | W 2.11 | C 2.57
Y22: H 2.18 | M 3.01 | I 2.8 | V 2.94 | A 2.53 | K 3.72 | L 3.15 | F 1.92 | D 3.5 | S 3.47 | R 3.33 | G 3.07 | T 2.24 | W 2.9 | Q 2.72 | C 3.69 | N 2.78 | E 3.26 | P 2.02
K23: N 2.42 | S 2.17 | E 2.15 | D 2.81 | V 1.79 | F 2.03 | Y 2.22 | M 1.58 | I 2.95 | P 2.31 | R 2.35 | T 2.34 | C 2.21 | L 2.73 | W 1.35 | A 1.98 | H 1.98 | G 2.21
R24: M 2.78 | L 2.05 | W 1.86 | E 4.57 | A 3.02 | K 4.02 | T 2.93 | H 3.66 | I 2.05 | G 2.74 | P 2.87 | C 2.58 | Y 2.61 | N 3.27 | V 2.52 | S 3.3 | D 3.65 | Q 3.34 | F 2.42
K15: I 1.58 | E 3.03 | G 2.3 | Q 3.14 | M 1.73 | Y 1.71 | R 1.52 | P 2.81 | L 2.19 | C 2.63 | N 2.99 | T 2.58 | W 2.27 | D 3.12 | A 2.73 | F 1.81 | S 1.96 | V 2.27 | H 1.98
N17: R 2.02 | D 2.33 | K 3.06 | L 1.91 | Q 2.73 | E 2.31 | M 1.75 | A 2.82 | I 2.44 | W 1.76 | V 1.78 | F 3.25 | S 1.66 | G 1.52 | H 2.91 | T 1.99 | P 2.35 | C 2.2
K14: P 2.88 | N 3.06 | Y 1.95 | V 2.37 | I 2.46 | T 3.14 | R 1.99 | Q 3.04 | D 2.98 | H 1.99 | F 2.23 | A 2.93 | L 1.54 | W 3.05 | S 2.39 | G 2.29 | E 3.44 | M 2.56
E10: S 3.23 | W 3.11 | M 1.96 | G 2.3 | T 2.21 | F 2.4 | L 1.92 | R 1.64 | A 1.74 | Y 1.92 | H 2.11 | N 2.29 | C 1.74 | I 2.51 | V 2.37 | K 2.6 | P 2.3 | Q 2.54
E11: A 2.96 | D 2.65 | P 2.83 | R 1.53 | L 3.19 | Y 1.92 | V 2.79 | M 2.68 | K 2.49 | Q 1.99 | S 2.5 | N 2.52 | T 1.9 | F 1.85 | I 2.45 | W 1.37 | G 1.77 | C 1.44 | H 2.28
C9: W 3.01 | Q 4.16 | R 4.08 | M 3.16 | L 3.9 | G 3.67 | D 3.78 | T 4.07 | P 3.43 | S 4.08 | A 3.38 | N 4.01 | F 3.32 | Y 3.61 | E 3.52 | K 3.6 | I 3.32 | V 4.21
C12: D 4.49 | G 4.29 | Q 4.24 | V 4.43 | K 4.4 | H 2.98 | L 3.3 | Y 3.92 | R 4.61 | W 2.93 | I 2.6 | F 3.44 | M 3.93 | T 3.78 | N 4.1 | E 4.78 | S 3.52 | P 4.01 | A 4.36
G8: W 2.03 | Q 1.98 | T 3.12 | S 2.19 | V 2.92 | P 2.31 | Y 2.21
G13: V 1.39 | P 3.96 | T 2.33 | W 3.27 | Y 2.32 | E 2.63 | M 1.82 | I 2.49 | H 2.45 | C 1.97 | S 2.98 | L 3.01 | F 1.93 | D 2.81 | Q 2.35 | R 2.53 | A 2.33 | N 2.12 | K 2.04

Variants of: B2
Experiment: as above
Conditions: c terminus: a fixed tail appended

Protein stability index: each site, then its substitutions
F1: N 4.98 | V 4.92 | E 4.98 | H 4.89 | R 5.18 | C 4.68 | I 4.79 | W 4.75 | Y 3.29 | K 4.65 | S 5.11 | T 5.3 | D 5.56 | M 4.96 | Q 5.11 | G 4.88 | A 5.04 | P 4.82 | L 5.03
P2: I 2.89 | E 4.71 | K 4.27 | C 2.7 | A 3.46 | M 3.93 | D 4.73 | G 4.14 | L 3.41 | F 3.33 | H 2.26 | N 4.11 | Q 3.81
